# T1: KRM2N-FLAG-6xHIS (human, UniProt Q8NCW0 26-364)
# T1 construct: extracellular domain; Negative control; also called human Kremen2; not shown: carboxyl FLAG tag and 6xHIS tag
# T1 sequence (looked up): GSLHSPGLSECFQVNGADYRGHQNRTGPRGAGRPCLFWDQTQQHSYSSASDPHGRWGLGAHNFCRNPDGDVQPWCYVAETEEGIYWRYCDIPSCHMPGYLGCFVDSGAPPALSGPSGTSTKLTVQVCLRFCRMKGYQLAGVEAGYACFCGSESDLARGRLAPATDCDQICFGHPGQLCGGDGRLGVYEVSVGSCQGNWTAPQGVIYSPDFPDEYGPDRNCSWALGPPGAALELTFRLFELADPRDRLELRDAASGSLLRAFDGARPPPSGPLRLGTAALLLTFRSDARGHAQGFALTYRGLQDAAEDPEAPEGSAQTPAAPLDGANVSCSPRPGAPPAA
# T2: recombinant human WNT3A, P56704
# T2 chain: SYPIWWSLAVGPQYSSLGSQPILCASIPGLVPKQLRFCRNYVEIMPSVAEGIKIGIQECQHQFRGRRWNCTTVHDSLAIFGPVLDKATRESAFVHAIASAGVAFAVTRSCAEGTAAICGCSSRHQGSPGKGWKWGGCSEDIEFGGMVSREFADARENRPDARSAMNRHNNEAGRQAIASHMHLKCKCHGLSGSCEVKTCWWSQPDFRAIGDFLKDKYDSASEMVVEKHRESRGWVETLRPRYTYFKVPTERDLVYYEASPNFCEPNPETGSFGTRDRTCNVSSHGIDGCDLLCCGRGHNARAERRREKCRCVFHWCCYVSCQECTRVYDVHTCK
# Tests used:
# KRM2N-FLAG-6xHIS = target: T1, KRM2N-FLAG-6xHIS; experiment: co-immunoprecipitation from CM with an anti-FLAG antibody, Western blotting
# Description: (Y-BB) TIKI2, but not KRM2, interacts with Wnt3a, Xwnt8-Myc, Wnt5a, and Xwnt11. Wnt proteins were each co-expressed with KRM2N or TIKI2N (FLAG tagged) and CM were subjected to immunoprecipitation with an anti-FLAG antibody and Western blotting with indicated antibodies.
# The rabbit polyclonal anti-LRP6 antibody has been described (Tamai et al., 2004). Other antibodies were used according to manufacturer's instructions. From Cell Signaling: the rabbit monoclonal anti-Wnt3a (#2721, 1:1000), anti-HA (#3724, 1:1000), anti-Wnt5a (#2530, 1:1000) and anti-FLAG (#8146, 1:2000), from Santa Cruz: anti-Dv12 (sc-13974, 1:1000), anti-HA (sc-7392, 1:1000), and anti-Myc (sc-40, 1:500), from BD Transduction Laboratories: anti-beta-catenin (610154, 1:2000), From Hybridoma Bank: anti-tubulin (E7, 1:5000). Anti-FLAG M2 (A2220) and anti-HA (A2095) Affinity gels are from Sigma Immunoblotting was performed as previously described (MacDonald et al., 2008). For indirect immunofluorescence experiments, HeLa cells were plated on glass coverslips in 12-well plates and transfected with HA*Tiki1 expression construct. To visualize Tiki1 proteins on the cell surface, live cells were incubated with the anti-HA antibody in the culture medium for 30 min. The coverslip was washed with PBS and fixed with 4% paraformaldehyde in PBS for 10 min at room temperature. […]
# [1] = target: T2, recombinant human WNT3A, P56704
Binder,binding result (KRM2N-FLAG-6xHIS),in vitro cleavage of purified HA-Wnt3a by purified protein (Western blotting) (HA-Wnt3a),"in vitro cleavage, mass spectrometry [1]"
TIKI2N-FLAG-6xHIS (protein) RPQPPDGGQCRPPGSQRDLNSFLWTIRRDPPAYLFGTIHVPYTRVWDFIPDNSKAAFQASTRVYFELDLTDPYTISALASCQLLPHGENLQDVLPHELYWRLKRHLDYVKLMMPSWMTPAQRGKGLYADYLFNAIAGNWERKRPVWVMLMVNSLTERDVRFRGVPVLDLYLAQQAEKMKKTTGAVEQVEEQCHPLNNGLNFSQVLFALNQTLLQQESVRAGSLQASYTTEDLIKHYNCGDLSAVIFNHDTSQLPNFINTTLPPHEQVTAQEIDSYFRQELIYKRNERMGKRVMALLRENEDKICFFAFGAGHFLGNNTVIDILRQAGLEVDHTPAGQAIHSPAPQSPAPSPEGTSTSPAPVTPAAAVPEAPSVTPTAPPEDEDPALSPHLLLPDSLSQLEEFGRQRKWHKRQSTHQRPRQFNDLWVRIEDSTTASPPPLPLQPTHSSGTAKPPFQLSDQLQQQDPPG,–,"upon in vitro incubation with purified HA-Wnt3a, triggered Wnt3a cleavage and the disappearance of the HA epitope",MS analyses of recombinant human WNT3A cleaved by TIKI2N in vitro indicated cleavage at identical (major and minor) amino terminal sites as observed in cells
TIKI2NΔ-FLAG-6xHIS (protein) RPQPPDGGQCRPPGSQRDLNSFLWTIRRDPPAYLFGTIHVPYTRVWDFIPDNSKAAFQASTRVYFELDLTDPYTISALASCQLLPHGENLQDVLPHELYWRLKRHLDYVKLMMPSWMTPAQRGKGLYADYLFNAIAGNWERKRPVWVMLMVNSLTERDVRFRGVPVLDLYLAQQAEKMKKTTGAVEQVEEQCHPLNNGLNFSQVLFALNQTLLQQESVRAGSLQASYTTEDLIKHYNCGDLSAVIFNHDTSQLPNFINTTLPPHEQVTAQEIDSYFRQELIYKRNERMGKRVMALLRENEDKICFFAFGAGHFLGNNTVIDILRQAGLEVDHTPAGQAIHSPAPQSPAPSPEGTSTSPAPVTPAAAVPEAPSVTPTAPPEDEDPALSPHLLLPDSLSQLEEFGRQRKWHKRQSTHQRPRQFNDLWVRIEDSTTASPPPLPLQPTHSSGTAKPPFQLSDQLQQQDPPG,–,failed to do so in the in vitro assay,–

# Further lines, with some results ahead:
binding result (KRM2N-FLAG-6xHIS),Binder,in vitro cleavage of purified HA-Wnt3a by purified protein (Western blotting) (HA-Wnt3a),"in vitro cleavage, mass spectrometry [1]"
no binding,"Xwnt11 (ligand, Xenopus, UniProt P49893 23-353, looked up) IQWLGLTVNGSRVAWNESEHCRLLDGLVPDQSQLCKRNLELMQSVVNAAKQTKLTCQMTLSDMRWNCSSVENAPSFTPDLSKGTRESAFVYALASATLSHTIARACASGELPTCSCGATPAEVPGTGFRWGGCGDNLHYGLNMGSAFVDAPMKSSKSAGTQATKIMNLHNNAVGRQVLMDSLETKCKCHGVSGSCSVKTCWKGLQDLPHIANELKSKYLGATKVIHRQTGTRRQLVPRELDIRPVRESELVYLVSSPDYCTKNPKLGSYGTQDRLCNKTSVGSDSCNLMCCGRGYNAYTETIVERCQCKYHWCCYVMCKKCERTVERYVCK",–,–
no binding,"Xwnt8-Myc (ligand, also called Xenopus wnt8; not shown: Myc tag) AWSVNNFLMTGPKAYLTYSASVAVGAQNGIEECKYQFAWERWNCPESTLQLATHNGLRSATRETSFVHAISSAGVMYTLTRNCSMGDFDNCGCDDSRNGRIGGRGWVWGGCSDNAEFGERISKLFVDGLETGQDARALMNLHNNEAGRLAVKETMKRTCKCHGISGSCSIQTCWLQLAEFRDIGNHLKIKHDQALKLEMDKRKMRSGNSADNRGAIADAFSSVAGSELIFLEDSPDYCLKNISLGLQGTEGRECLQSGKNLSQWERRSCKRLCTDCGLRVEEKKTEIISSCNCKFHWCCTVKCEQCKQVVIKHFCARRERDSNMLNTKRKNRGHRR",–,–

# Source: patent US20150166671A1 (CHILDREN S MEDICAL CENTER, published 2015)
